This data set deals with the molecule itself. The experiment in a line: crystal structure; RdDddP crystallised in 4-4.5 M sodium chloride, 0.1 M Bis-Tris pH 6.5; space group P6(3)22, one molecule per asymmetric unit, dimer formed with a chain related by crystallographic symmetry; 2.15 Å native dataset.

B1: putative DddP DMSP lyase from Roseobacter denitrificans Och 114 (enzyme, UniProt Q166H0 1-447, looked up)
chain: MNRHFNATRKIDPSRGATLGDGSPNDMNRVEIGPTQLAFAEWHTARLDLPDLAAMRRFRHRRLTDHVVARGYAGLLMFDPLNIRYATDSTNMQLWNTHNPFRATLLCADGYMVMWDYKNSPFLSEFNPLVREQRAGADLFYFDRGDKVDVAADVFANEVRILLRDHAPGLRRLAVDKVMLHGLRALQAQGFEIMDGEEVTEKARSVKGPDEIRAMRCASHACEVAVRKMEDFARSKVGDGVTCENDIWAILHSENVRRGGEWIETRLLASGPRSNPWFQECGPRVCQRNEIISFDTDLVGAYGICTDISRSWWIGDQKPRADMIYAMQHGVEHIRTNMEMLKPGVMIPELSANTHVLDAKFQKQKYGCLMHGVGLCDEWPLVAYPDHAVAGAYDYPLEPGMTLCVEALISEEGGDFSIKLEDQVLITEDGYENLTKYPFDPALMGVE
notes: putative DMSP lyase DddP (RdDddP), Roseobacter denitrificans Och 114, YP_682809; 453 residues, 51 kDa; the gene was amplified with printed primers that run from the ATG start codon to the stop codon; residues 10-444 are described in the structure; Homodimer formed by crystallographic symmetry; A few vector residues probably remain at the N-terminus after thrombin cleavage (NheI cloning in pET28); …
For the protein B1, the “stoichiometry N” value is 2.

Values taken from publication PMC4108388, “The Structure of RdDddP from Roseobacter denitrificans Reveals That DMSP Lyases in the DddP-Family Are Metalloenzymes” (PLoS ONE, 2014).
